According to patent publication US20200199204A1:

Tests used:
Assay in all cases: cell-based or functional assay
[1] = target: HIV-1 Env of CAP244.D3 (HIV-1)
[2] = target: HIV-1 Env of PVO.04 (HIV-1)
[3] = target: HIV-1 Env of DU156.12 (HIV-1)
[4] = target: HIV-1 Env of ZM53.12 (HIV-1)
[5] = target: HIV-1 Env of CNE3 (HIV-1)
[6] = target: HIV-1 Env of WITO.33 (HIV-1)
[7] = target: HIV-1 Env of Q168.a2 (HIV-1)
[8] = target: HIV-1 Env of ZM214.15 (HIV-1)
[9] = target: HIV-1 Env of C1080.c3 (HIV-1)
[10] = target: HIV-1 Env of Q842.d12 (HIV-1)
[11] = target: HIV-1 Env of ZM233.6 (HIV-1)
[12] = target: HIV-1 Env of 96ZM651.02 (HIV-1)
[13] = target: HIV-1 Env of ZM135.10a (HIV-1)
[14] = target: HIV-1 Env of QH0692.42 (HIV-1)
[15] = target: HIV-1 Env of DU172.17 (HIV-1)
[16] = target: HIV-1 Env of TH976.17 (HIV-1)
[17] = target: HIV-1 Env of REJO.67 (HIV-1)
[18] = target: HIV-1 Env of 0260.v5.c36 (HIV-1)
[19] = target: HIV-1 Env of MB539.2B7 (HIV-1)
[20] = target: HIV-1 Env of KER2008.12 (HIV-1)
[21] = target: HIV-1 Env of ZM249.1 (HIV-1)
[22] = target: HIV-1 Env of CAP256.PI (HIV-1)
[23] = target: HIV-1 Env of 6535.3 (HIV-1)
[24] = target: HIV-1 Env of 3016.V5.c36 (HIV-1)
[25] = target: HIV-1 Env of AC10.29 (HIV-1)
[26] = target: HIV-1 Env of UG037.8 (HIV-1)
[27] = target: HIV-1 Env of CAAN.A2 (HIV-1)
[28] = target: HIV-1 Env of ZM109.4 (HIV-1)
[29] = target: HIV-1 Env of CAP256.SU (HIV-1)
[30] = target: HIV-1 Env of Q23.17 (HIV-1)
[31] = target: HIV-1 Env of SC422.8 (HIV-1)
[32] = target: HIV-1 Env of Q769.d22 (HIV-1)
[33] = target: HIV-1 Env of RHPA.7 (HIV-1)
[34] = target: HIV-1 Env of CAP45.G3 (HIV-1)
[35] = target: HIV-1 Env of KER2018.11 (HIV-1)
[36] = target: HIV-1 Env of CM244.ec1 (HIV-1)
[37] = target: HIV-1 Env of 6405.v4.c34 (HIV-1)
[38] = target: HIV-1 Env of RW020.2 (HIV-1)
[39] = target: HIV-1 Env of ZM197.7 (HIV-1)
[40] = target: HIV-1 Env of Q461.e2 (HIV-1)
[41] = target: HIV-1 Env of MB201 (HIV-1)
[42] = target: HIV-1 Env of Q259.d2.17 (HIV-1)
[43] = target: HIV-1 Env of BG505.w6m (HIV-1)
[44] = target: HIV-1 Env of DU422.01 (HIV-1)
[45] = target: HIV-1 Env of TRO.11 (HIV-1)
[46] = target: HIV-1 Env of THRO.18 (HIV-1)
[47] = target: HIV-1 Env of CAP210.E8 (HIV-1)
[48] = target: HIV-1 Env of TRJO.58 (HIV-1)

CAP256-VRC26.30 (antibody)
IC50 (neutralization, TZM-bl) [1]: > 50 µg/mL | IC50 (neutralization, TZM-bl) [2]: 12.6 µg/mL | IC50 (neutralization, TZM-bl) [3]: 0.848 µg/mL | IC50 (neutralization, TZM-bl) [4]: < 0.0006 µg/mL | IC50 (neutralization, TZM-bl) [5]: > 50 µg/mL | IC50 (neutralization, TZM-bl) [6]: > 50 µg/mL | IC50 (neutralization, TZM-bl) [7]: 0.199 µg/mL | IC50 (neutralization, TZM-bl) [8]: > 50 µg/mL | IC50 (neutralization, TZM-bl) [9]: 0.073 µg/mL | IC50 (neutralization, TZM-bl) [10]: > 50 µg/mL | IC50 (neutralization, TZM-bl) [11]: 0.188 µg/mL | IC50 (neutralization, TZM-bl) [12]: 37.8 µg/mL | IC50 (neutralization, TZM-bl) [13]: > 50 µg/mL | IC50 (neutralization, TZM-bl) [14]: > 50 µg/mL | IC50 (neutralization, TZM-bl) [15]: > 50 µg/mL | IC50 (neutralization, TZM-bl) [16]: > 50 µg/mL | IC50 (neutralization, TZM-bl) [17]: > 50 µg/mL | IC50 (neutralization, TZM-bl) [18]: > 50 µg/mL | IC50 (neutralization, TZM-bl) [19]: > 50 µg/mL | IC50 (neutralization, TZM-bl) [20]: > 50 µg/mL | IC50 (neutralization, TZM-bl) [21]: 0.762 µg/mL | IC50 (neutralization, TZM-bl) [22]: > 50 µg/mL | IC50 (neutralization, TZM-bl) [23]: > 50 µg/mL | IC50 (neutralization, TZM-bl) [24]: 1.05 µg/mL | IC50 (neutralization, TZM-bl) [25]: > 50 µg/mL | IC50 (neutralization, TZM-bl) [26]: > 50 µg/mL | IC50 (neutralization, TZM-bl) [27]: > 50 µg/mL | IC50 (neutralization, TZM-bl) [28]: > 50 µg/mL | IC50 (neutralization, TZM-bl) [29]: < 0.0006 µg/mL | IC50 (neutralization, TZM-bl) [30]: > 50 µg/mL | IC50 (neutralization, TZM-bl) [31]: > 50 µg/mL | IC50 (neutralization, TZM-bl) [32]: > 50 µg/mL | IC50 (neutralization, TZM-bl) [33]: > 50 µg/mL | IC50 (neutralization, TZM-bl) [34]: 0.317 µg/mL | IC50 (neutralization, TZM-bl) [35]: < 0.0006 µg/mL | IC50 (neutralization, TZM-bl) [36]: > 50 µg/mL | IC50 (neutralization, TZM-bl) [37]: > 50 µg/mL | IC50 (neutralization, TZM-bl) [38]: > 50 µg/mL | IC50 (neutralization, TZM-bl) [39]: 1 µg/mL | IC50 (neutralization, TZM-bl) [40]: > 50 µg/mL | IC50 (neutralization, TZM-bl) [41]: > 50 µg/mL | IC50 (neutralization, TZM-bl) [42]: 0.107 µg/mL | IC50 (neutralization, TZM-bl) [43]: 9.04 µg/mL | IC50 (neutralization, TZM-bl) [44]: 0.4 µg/mL | IC50 (neutralization, TZM-bl) [45]: > 50 µg/mL | IC50 (neutralization, TZM-bl) [46]: > 50 µg/mL | IC50 (neutralization, TZM-bl) [47]: < 0.0006 µg/mL | IC50 (neutralization, TZM-bl) [48]: > 50 µg/mL

CAP256-VRC26.31 (antibody)
IC50 (neutralization, TZM-bl) [1]: > 50 µg/mL | IC50 (neutralization, TZM-bl) [2]: > 50 µg/mL | IC50 (neutralization, TZM-bl) [3]: 4.46 µg/mL | IC50 (neutralization, TZM-bl) [4]: < 0.0006 µg/mL | IC50 (neutralization, TZM-bl) [5]: > 50 µg/mL | IC50 (neutralization, TZM-bl) [6]: > 50 µg/mL | IC50 (neutralization, TZM-bl) [7]: 4.16 µg/mL | IC50 (neutralization, TZM-bl) [8]: > 50 µg/mL | IC50 (neutralization, TZM-bl) [9]: 1.67 µg/mL | IC50 (neutralization, TZM-bl) [10]: > 50 µg/mL | IC50 (neutralization, TZM-bl) [11]: 0.74 µg/mL | IC50 (neutralization, TZM-bl) [12]: > 50 µg/mL | IC50 (neutralization, TZM-bl) [13]: > 50 µg/mL | IC50 (neutralization, TZM-bl) [14]: > 50 µg/mL | IC50 (neutralization, TZM-bl) [15]: > 50 µg/mL | IC50 (neutralization, TZM-bl) [16]: > 50 µg/mL | IC50 (neutralization, TZM-bl) [17]: > 50 µg/mL | IC50 (neutralization, TZM-bl) [18]: > 50 µg/mL | IC50 (neutralization, TZM-bl) [19]: > 50 µg/mL | IC50 (neutralization, TZM-bl) [20]: > 50 µg/mL | IC50 (neutralization, TZM-bl) [21]: > 50 µg/mL | IC50 (neutralization, TZM-bl) [22]: > 50 µg/mL | IC50 (neutralization, TZM-bl) [23]: > 50 µg/mL | IC50 (neutralization, TZM-bl) [24]: > 50 µg/mL | IC50 (neutralization, TZM-bl) [25]: > 50 µg/mL | IC50 (neutralization, TZM-bl) [26]: > 50 µg/mL | IC50 (neutralization, TZM-bl) [27]: > 50 µg/mL | IC50 (neutralization, TZM-bl) [28]: > 50 µg/mL | IC50 (neutralization, TZM-bl) [29]: < 0.0006 µg/mL | IC50 (neutralization, TZM-bl) [30]: > 50 µg/mL | IC50 (neutralization, TZM-bl) [31]: > 50 µg/mL | IC50 (neutralization, TZM-bl) [32]: > 50 µg/mL | IC50 (neutralization, TZM-bl) [33]: > 50 µg/mL | IC50 (neutralization, TZM-bl) [34]: > 50 µg/mL | IC50 (neutralization, TZM-bl) [35]: 0.002 µg/mL | IC50 (neutralization, TZM-bl) [36]: > 50 µg/mL | IC50 (neutralization, TZM-bl) [37]: > 50 µg/mL | IC50 (neutralization, TZM-bl) [38]: > 50 µg/mL | IC50 (neutralization, TZM-bl) [39]: 3.22 µg/mL | IC50 (neutralization, TZM-bl) [40]: > 50 µg/mL | IC50 (neutralization, TZM-bl) [41]: > 50 µg/mL | IC50 (neutralization, TZM-bl) [42]: 0.262 µg/mL | IC50 (neutralization, TZM-bl) [43]: > 50 µg/mL | IC50 (neutralization, TZM-bl) [44]: 1.66 µg/mL | IC50 (neutralization, TZM-bl) [45]: > 50 µg/mL | IC50 (neutralization, TZM-bl) [46]: > 50 µg/mL | IC50 (neutralization, TZM-bl) [47]: 0.003 µg/mL | IC50 (neutralization, TZM-bl) [48]: > 50 µg/mL
